Residue numbers refer to the chain shown, from its start.
B1: RARα LBD (protein)
chain: ESYTLTPEVGELIEKVRKAHQETFPALCQLGKYTTNNSSEQRVSLDIDLWDKFSELSTKCIIKTVEFAKQLPGFTTLTIADQITLLKAACLDILILRICTRYTPEQDTMTFSDGLTLNRTQMHNAGFGPLTDLVFAFANQLLPLEMDDAETGLLSAICLICGDRQDLEQPDRVDMLQEPLLEALKVYVRKRRPSRPHMFPKMLMKITDLRSISAKGAERVITPKMEIPGSMPPLIQEMLENSEGLD
B2: RARα LBD (protein)
chain: B1 chain with M122L, P223L
B3: RARα LBD (protein)
chain: B1 chain with P223L
B4: RARα LBD (protein)
chain: B1 chain with P223L, M238T

Experiments:
Assay in all cases: fluorescence anisotropy
N-CoR RID2 peptide [1] = target: T1, N-CoR RID2 peptide (Homo sapiens)
T1 chain: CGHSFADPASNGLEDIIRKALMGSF

N-CoR RID2 peptide [2] = target: T2, N-CoR RID2 peptide (Homo sapiens, Rhodamine Red-labelled peptide)
T2 chain: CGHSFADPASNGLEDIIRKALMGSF

ACTR NR box 3 peptide [3] = target: T3, ACTR NR box 3 peptide (Homo sapiens, 521 nM ATRA, Rhodamine Red-labelled peptide)
T3 chain: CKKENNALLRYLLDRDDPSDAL

ACTR NR box 3 peptide [4] = target: T4, ACTR NR box 3 peptide (Homo sapiens, Rhodamine Red-labelled peptide)
T4 chain: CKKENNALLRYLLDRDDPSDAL

N-CoR RID2 peptide [5] = target: T5, N-CoR RID2 peptide (Homo sapiens, 209 nM ATRA, Rhodamine Red-labelled peptide)
T5 chain: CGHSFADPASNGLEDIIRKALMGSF

Binder | Kd (N-CoR RID2 peptide [1]) | Kd (N-CoR RID2 peptide [2]) | Kd (ACTR NR box 3 peptide [3]) | Kd (ACTR NR box 3 peptide [4]) | Kd (N-CoR RID2 peptide [5])
B1 | 12.2 µM | – | – | – | –
B2 | 18.6 µM | – | – | – | –
B3 | – | 18.9 µM | 55 µM | 155 µM | 74.2 µM
B4 | 10.9 µM | – | – | – | –

From paper PMC3294029 (2013)
